The target of series [1] is T1, MBP-GlcR (MGlcR) (Paracoccus denitrificans) (UniProt A1BAC0).
T1 sequence: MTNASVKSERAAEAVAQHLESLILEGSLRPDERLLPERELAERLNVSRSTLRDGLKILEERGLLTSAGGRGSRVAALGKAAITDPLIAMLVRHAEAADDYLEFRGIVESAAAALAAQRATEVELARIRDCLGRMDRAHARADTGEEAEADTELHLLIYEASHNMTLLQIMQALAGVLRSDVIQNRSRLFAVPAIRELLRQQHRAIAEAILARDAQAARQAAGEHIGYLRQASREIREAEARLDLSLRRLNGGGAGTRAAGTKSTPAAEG
Put plainly: EMSA. The following applies: EMSA buffer, salt, pH and temperature not given in the material. For orientation: Mobility shift assays separate free from complexed probe on a gel.

For the next series, the target named is T2, MBP-GlcR (MGlcR) (Paracoccus denitrificans, UniProt A1BAC0 1-269).
T2 sequence: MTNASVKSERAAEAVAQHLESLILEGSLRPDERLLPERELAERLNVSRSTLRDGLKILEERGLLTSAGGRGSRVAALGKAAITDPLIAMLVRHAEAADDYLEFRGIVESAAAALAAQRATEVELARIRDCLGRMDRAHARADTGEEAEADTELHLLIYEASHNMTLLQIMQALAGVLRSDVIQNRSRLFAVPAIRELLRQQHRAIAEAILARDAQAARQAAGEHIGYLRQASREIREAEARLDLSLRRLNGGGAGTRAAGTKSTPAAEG
Put plainly: EMSA.

The values below come from PMC11470758.

Take “CTTTCTAGATCACGCACGCGCCAGGATGCCCGCATCGGGCCGGGGCATGGCAATACCGGACAAGCTCTCCTCCCTTGGTCGAACGGCAGGCCCGTGTCCTGCCCTGCATTCTTGGTATAATTTTCAGACCACATTAGTCAATCGGTATTTTTCTGGACCGACACGCCCGTCCTGTGCTTACATGGCAGGGATCCGACAACCGCATGAGCGCCCATGACCAACGCATCCGTGAAATCCGAACGCGCCGCCGAGGCCGTGGCCCAGTGAGAATTCATATC (double strand) [pden4399-4400 intergenic sequence]”: the binding entry in series [1] is “binds”.

B1: fragment #3 (dsDNA)
DNA 1: GTCCAGAAAAATACCGATTGACTAATGTGGTCTGAAAATTATACCAAGAATGCAGGGCAG
DNA 2: CTGCCCTGCATTCTTGGTATAATTTTCAGACCACATTAGTCAATCGGTATTTTTCTGGAC
In the case of B1, in the series with MBP-GlcR (MGlcR), the binding result is given as “binds”.
